We go through seven molecules from US20130336885A1 (Genentech, published 2013).

The chains are these.
B1: h8E11.v3 (antibody, V domains shown)
VH: EVQLVQSGAEVKKPGASVKVSCKASGYTFSAYWIEWVRQAPGQGLEWIGEILPGSDSTDYNEKFKVRVTITSDTSTSTVYLELSSLRSEDTAVYYCARGGHYGSLDYWGQGTLVTVSS
VL: DIVMTQSPDSLAVSLGERATINCRASESVDNYGNSFMHWYQQKPGQPPKLLIYLASNLESGVPDRFSGSGSRTDFTLTISSLQAEDVAVYYCQQNYEDPFTFGQGTKVEIKR
notes: VH CDR graft + 71S/78V; also called hu8E11.v3
B2: h8E11.v5 (antibody, V domains shown)
VH: EVQLVQSGAEVKKPGASVKVSCKASGYTFSAYWIEWVRQAPGQGLEWIGEILPGSDSTDYNEKFKVRVTITRDTSTSTAYLELSSLRSEDTAVYYCARGGHYGSLDYWGQGTLVTVSS
VL: DIVMTQSPDSLAVSLGERATINCRASESVDNYGNSFMHWYQQKPGQPPKLLIYLASNLESGVPDRFSGSGSGTDFTLTISSLQAEDVAVYYCQQNYEDPFTFGQGTKVEIKR
notes: VH CDR graft + 71R/78A; also called hu8E11.v5
B3: h8E11.v6 (antibody, V domains shown)
VH: EVQLVQSGAEVKKPGASVKVSCKASGYTFSAYWIEWVRQAPGQGLEWIGEILPGSDSTDYNEKFKVRVTITADTSTSTAYLELSSLRSEDTAVYYCARGGHYGSLDYWGQGTLVTVSS
VL: DIVMTQSPDSLAVSLGERATINCRASESVDNYGNSFMHWYQQKPGQPPKLLIYLASNLESGVPDRFSGSGSGTDFTLTISSLQAEDVAVYYCQQNYEDPFTFGQGTKVEIKR
notes: VH CDR graft + 71A/78A; also called hu8E11.v6
B4: h8E11.v4 (antibody, V domains shown)
VH: EVQLVQSGAEVKKPGASVKVSCKASGYTFSAYWIEWVRQAPGQGLEWIGEILPGSDSTDYNEKFKVRATFTSDTSTSTVYLELSSLRSEDTAVYYCARGGHYGSLDYWGQGTLVTVSS
VL: DIVMTQSPDSLAVSLGERATINCRASESVDNYGNSFMHWYQQKPGQPPKLLIYLASNLESGVPDRFSGSGSRTDFTLTISSLQAEDVAVYYCQQNYEDPFTFGQGTKVEIKR
notes: VH CDR graft + 67A/69F/71S/78V; also called hu8E11.v4
B5: h8E11.v8 (antibody, V domains shown)
VH: EVQLVQSGAEVKKPGASVKVSCKASGYTFSAYWIEWVRQAPGQGLEWIGEILPGSDSTDYNEKFKVRVTITADTSTSTAYLELSSLRSEDTAVYYCARGGHYGSLDYWGQGTLVTVSS
VL: DIVMTQSPDSLAVSLGERATINCRASESVDNYGNSFMHWYQQKPGQPPKLLIYLASNLESGVPDRFSGSGSRTDFTLTISSLQAEDVAVYYCQQNYEDPFTFGQGTKVEIKR
notes: VH CDR graft + 71A/78A; also called hu8E11.v8
B6: h8E11.v1 (antibody, V domains shown)
VH: EVQLVQSGAEVKKPGASVKVSCKASGYTFSAYWIEWVRQAPGQGLEWIGEILPGSDSTDYNEKFKVRVTITSDTSTSTVYLELSSLRSEDTAVYYCARGGHYGSLDYWGQGTLVTVSS
VL: DIVMTQSPDSLAVSLGERATINCRASESVDNYGNSFMHWYQQKPGQPPKLLIYLASNLESGVPDRFSGSGSGTDFTLTISSLQAEDVAVYYCQQNYEDPFTFGQGTKVEIKR
notes: VH CDR graft + 71S/78V; also called hu8E11.v1
B7: h8E11.v7 (antibody, V domains shown)
VH: EVQLVQSGAEVKKPGASVKVSCKASGYTFSAYWIEWVRQAPGQGLEWIGEILPGSDSTDYNEKFKVRVTITRDTSTSTAYLELSSLRSEDTAVYYCARGGHYGSLDYWGQGTLVTVSS
VL: DIVMTQSPDSLAVSLGERATINCRASESVDNYGNSFMHWYQQKPGQPPKLLIYLASNLESGVPDRFSGSGSRTDFTLTISSLQAEDVAVYYCQQNYEDPFTFGQGTKVEIKR
notes: VH CDR graft + 71R/78A; also called hu8E11.v7

Broadly, the Kd is a measure of binding affinity in units of concentration. As usually defined, the koff is a measure of how fast the partners let go of each other. A high value points to a short-lived complex. The kon is the second-order rate constant of association. A high value points to faster complex formation.

The target in the experiment is T1, human LgR5 ECD (amino acids 22-557 fused to His-Fc expressed in a baculovirus system, or amino acids 22-558 … (human, UniProt O75473 22-557)).
T1 construct: not shown: C-terminal His-tagged Fc
T1 sequence: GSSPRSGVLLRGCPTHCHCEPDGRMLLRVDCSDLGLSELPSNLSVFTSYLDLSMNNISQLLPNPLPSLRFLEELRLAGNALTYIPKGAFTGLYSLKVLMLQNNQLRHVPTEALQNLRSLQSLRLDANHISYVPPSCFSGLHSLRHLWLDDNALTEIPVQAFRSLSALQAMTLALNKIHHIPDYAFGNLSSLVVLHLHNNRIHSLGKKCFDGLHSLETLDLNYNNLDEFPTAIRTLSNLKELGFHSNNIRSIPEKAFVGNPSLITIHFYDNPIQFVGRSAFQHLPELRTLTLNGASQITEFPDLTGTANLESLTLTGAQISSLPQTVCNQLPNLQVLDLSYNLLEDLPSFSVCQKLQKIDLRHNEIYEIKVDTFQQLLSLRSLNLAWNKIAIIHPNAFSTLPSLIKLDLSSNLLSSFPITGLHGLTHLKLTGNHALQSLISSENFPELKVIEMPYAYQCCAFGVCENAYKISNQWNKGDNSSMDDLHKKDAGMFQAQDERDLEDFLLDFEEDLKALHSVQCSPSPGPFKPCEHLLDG
Put plainly: BIAcore-3000 SPR, IgG captured on goat anti-human Fc, human LgR5 ECD-Fc injected, 25 C, 1:1 Langmuir model. As to the method:
The affinity of each 8E11 IgG variant for human LgR5 was determined by surface plasmon resonance using a BIAcore™-3000. BIAcore™ research grade CMS chips were activated with 1-ethyl-3-(3-dimethylaminopropyl) carbodiimide (EDC) and N-hydroxysuccinimide (NHS) reagents according to the supplier's instructions. Goat anti-human Fc IgGs were coupled to the chips to achieve approximately 10,000 response units (RU) in each flow cell. Unreacted coupling groups were blocked with 1M ethanolamine. For kinetics measurements, anti-LGR5 antibodies were captured to achieve approximately 300 RU. Two-fold serial dilutions of human LgR5ECD (amino acids 22-557 fused to His-Fc expressed in a baculovirus system, or amino acids 22-558 fused to Fc expressed from CHO cells; 125 nM to 0.49 nM) were injected in HBS-P buffer (0.01M HEPES pH7.4, 0.15M NaCl, 0.005% surfactant P20) at 25° C. with a flow rate of 30 μl/min. Association rates (kₒₙ) and dissociation rates (koff) were calculated using a 1:1 Langmuir binding model (BIAcore™ Evaluation Software version 3.2). The equilibrium dissociation constant (Kd) was calculated as the ratio koff/kₒₙ.
In turn, B1 gave a Kd of 4.73 nM, a koff of 0.00053 s⁻¹ and a kon of 112000 M⁻¹ s⁻¹.

B2 came in with a Kd of 14.3 nM, a koff of 0.000933 s⁻¹ and a kon of 65000 M⁻¹ s⁻¹.

For the molecule B3, the Kd came out at 14.1 nM, the off-rate constant (koff) amounted to 0.00202 s⁻¹ and the kon amounted to 143000 M⁻¹ s⁻¹.

As to B4, the affinity, expressed as Kd, was 3.63 nM; the koff amounted to 0.000922 s⁻¹; the kon turned out to be 254000 M⁻¹ s⁻¹.

For B5, the affinity, expressed as Kd, was 8.97 nM; the koff was 0.00217 s⁻¹; the kon was 242000 M⁻¹ s⁻¹.

For B6, the Kd worked out at 5.05 nM, the koff turned out to be 0.000772 s⁻¹ and the kon was 153000 M⁻¹ s⁻¹.

B7: binding was put at a Kd of 22.1 nM, the koff is 0.00258 s⁻¹ and the kon is 117000 M⁻¹ s⁻¹.
